Target: CLSY3-3xF-BLRP (Arabidopsis) (UniProt F4I8S3)
Experiment: co-IP; streptavidin beads (M-280 Dynabeads) capture CLSY3-3xF-BLRP from flower extracts of F1 plants crossed to NRPD1-3xF WT or CYC-AAAA; anti-FLAG western blot; dilution series of the WT co-IP

Sequence of UniProt F4I8S3 (F4I8S3 whole entry): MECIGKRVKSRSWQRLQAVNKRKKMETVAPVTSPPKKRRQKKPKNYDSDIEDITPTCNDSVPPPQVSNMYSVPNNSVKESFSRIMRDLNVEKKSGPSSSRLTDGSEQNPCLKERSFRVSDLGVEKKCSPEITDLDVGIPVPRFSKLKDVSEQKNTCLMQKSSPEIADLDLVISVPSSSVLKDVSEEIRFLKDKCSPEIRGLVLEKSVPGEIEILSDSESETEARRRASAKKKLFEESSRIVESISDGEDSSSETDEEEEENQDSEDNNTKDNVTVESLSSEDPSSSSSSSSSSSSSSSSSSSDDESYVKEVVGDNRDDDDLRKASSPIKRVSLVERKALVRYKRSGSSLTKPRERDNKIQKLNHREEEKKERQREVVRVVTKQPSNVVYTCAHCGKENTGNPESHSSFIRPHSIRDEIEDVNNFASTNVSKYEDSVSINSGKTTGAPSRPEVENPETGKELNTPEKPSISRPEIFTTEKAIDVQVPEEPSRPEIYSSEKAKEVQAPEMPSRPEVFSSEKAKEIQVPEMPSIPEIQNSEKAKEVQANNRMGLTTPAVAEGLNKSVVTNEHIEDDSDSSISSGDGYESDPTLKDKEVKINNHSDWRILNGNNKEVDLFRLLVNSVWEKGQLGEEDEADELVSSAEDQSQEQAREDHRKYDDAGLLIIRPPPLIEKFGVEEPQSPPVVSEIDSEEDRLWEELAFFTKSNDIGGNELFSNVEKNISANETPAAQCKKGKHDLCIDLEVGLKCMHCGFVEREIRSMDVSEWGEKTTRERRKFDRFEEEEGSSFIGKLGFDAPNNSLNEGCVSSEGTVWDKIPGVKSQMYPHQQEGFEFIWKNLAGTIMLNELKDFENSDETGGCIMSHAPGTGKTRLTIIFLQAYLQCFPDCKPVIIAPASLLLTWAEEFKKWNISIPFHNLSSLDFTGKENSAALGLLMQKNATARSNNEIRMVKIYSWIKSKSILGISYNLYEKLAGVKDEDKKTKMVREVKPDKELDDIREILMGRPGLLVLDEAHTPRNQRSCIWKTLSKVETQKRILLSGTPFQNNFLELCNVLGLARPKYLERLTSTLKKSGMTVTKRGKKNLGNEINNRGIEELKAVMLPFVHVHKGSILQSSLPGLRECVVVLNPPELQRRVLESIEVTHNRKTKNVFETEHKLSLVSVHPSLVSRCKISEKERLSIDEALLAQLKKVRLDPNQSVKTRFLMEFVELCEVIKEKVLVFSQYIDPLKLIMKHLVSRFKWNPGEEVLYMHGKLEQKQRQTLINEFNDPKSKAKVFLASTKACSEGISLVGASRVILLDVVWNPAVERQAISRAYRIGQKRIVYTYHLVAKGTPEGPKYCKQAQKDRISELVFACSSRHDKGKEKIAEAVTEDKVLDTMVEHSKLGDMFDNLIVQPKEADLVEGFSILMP

fold reduction of the co-IP against NRPD1-3xFWT: > 8 fold
Substance: NRPD1-3xF_(CYC-AAAA) (from UniProt Q9LQ02 1-1453) (natural protein)

Source: paper PMC11603163
